Measurements as given in publication PMC4970318.

Key:
[1] = biological target: Claudin23 10-mer (Homo sapiens)
FD1 = test: competition
FD2 = test: competition
FD3 = test: competition
[2] = biological target: LPA2 6-mer (Homo sapiens); test: competition
RD1 = test: competition
RD2 = test: competition
RD3 = test: competition
[3] = biological target: LPA2 10-mer (Homo sapiens)
CAT = test: competition
CST = test: competition

Row | Binder | Kd [1] [µM] | Ki (FD1) [µM] | Ki (FD2) [µM] | Ki (FD3) [µM] | Ki [2] [µM] | Ki (RD1) [µM] | Ki (RD2) [µM] | Ki (RD3) [µM] | Kd (FD2 8-mer) [µM] | Kd [3] [µM] | Ki (CAT) [µM] | Ki (CST) [µM]
1 | MAGI-3 PDZ6 (M3P6) PDZ6, Q5TCQ9 (protein) GCYPVELERGPRGFGFSLRGGKEYNMGLFILRLAEDGPAIKDGRIHVGDQIVEINGEPTQGITHTRAIELIQAGGNKVLLLLRPGTGLI | 3.6 | 600 | > 1000 | > 1000 | 47.4 | 1.8 | 2.7 | 6.8 | – | – | – | –
2 | NHERF-2 PDZ2 (N2P2) PDZ2, Q15599 (protein) LRPRLCHLRKGPQGYGFNLHSDKSRPGQYIRSVDPGSPAARSGLRAQDRLIEVNGQNVEGLRHAEVVASIKAREDEARLLVVDPETD | – | 14.2 | 6.8 | 9.1 | 28.4 | 5.4 | 12.5 | 4.6 | 3.6 | 11.5 | 254 | 54.8
